Data: PMC2905227 (Journal of the American Chemical Society, 2010)

Biological target: T1, wild-type E. coli ribonucleotide reductase α2 subunit (E. coli, UniProt P00452 1-761)
T1 sequence (looked up): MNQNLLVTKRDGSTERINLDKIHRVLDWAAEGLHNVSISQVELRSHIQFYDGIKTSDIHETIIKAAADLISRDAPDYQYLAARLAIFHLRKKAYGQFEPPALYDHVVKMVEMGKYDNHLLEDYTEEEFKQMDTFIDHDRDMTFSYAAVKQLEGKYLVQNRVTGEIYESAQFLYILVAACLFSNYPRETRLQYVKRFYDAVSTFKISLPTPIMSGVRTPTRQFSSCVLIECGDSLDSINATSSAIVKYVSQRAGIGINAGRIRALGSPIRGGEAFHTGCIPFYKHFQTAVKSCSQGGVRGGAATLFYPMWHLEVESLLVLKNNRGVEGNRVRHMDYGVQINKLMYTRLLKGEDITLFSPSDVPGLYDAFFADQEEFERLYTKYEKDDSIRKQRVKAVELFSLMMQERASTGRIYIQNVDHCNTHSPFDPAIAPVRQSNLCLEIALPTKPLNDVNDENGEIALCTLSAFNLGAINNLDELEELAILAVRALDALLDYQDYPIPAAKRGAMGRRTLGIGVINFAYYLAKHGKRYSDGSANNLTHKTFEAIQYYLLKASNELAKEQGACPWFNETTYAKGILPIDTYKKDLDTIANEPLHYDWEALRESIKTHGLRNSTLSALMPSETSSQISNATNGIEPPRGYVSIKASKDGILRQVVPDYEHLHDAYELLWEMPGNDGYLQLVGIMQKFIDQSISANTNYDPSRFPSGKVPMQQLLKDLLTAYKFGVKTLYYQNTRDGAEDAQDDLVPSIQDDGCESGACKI
Assay: competitive inhibition of enzyme activity

B1: [NO2Y122]-β2 (enzyme)
chain: AYTTFSQTKNDQLKEPMFFGQPVNVARYDQQKYDIFEKLIEKQLSFFWRPEEVDVSRDRIDYQALPEHEKHIFISNLKYQTLLDSIQGRSPNVALLPLISIPELETWVETWAFSETIHSRSYTHIIRNIVNDPSVVFDDIVTNEQIQKRAEGISSYYDELIEMTSYWHLLGEGTHTVNGKTVTVSLRELKKKLYLCLMSVNALEAIRFYVSFACSFAFAERELMEGNAKIIRLIARDEALHLTGTQHMLNLLRSGADDPEMAEIAEECKQECYDLFVQAAQQEKDWADYLFRDGSMIGLNKDILCQYVEYITNIRMQAVGLDLPFQTRSNPIPWINTWLVSDNVQVAPQEVEVSSYLVGQIDSEVDTDDLSNFQL
modifications: 3-nitrotyrosine (NO2Y) in place of Y122; diferric cluster (met form, 2.9 Fe/β2)
Work on B1 yielded a Kd of 400 ± 60 nM.
